Reference: patent US20240287172A1 (SCIRHOM, published 2024)
Changes are numbered by the printed parent chain.

B1: antibody 48 (antibody, V domains shown)
VH: QVQLQQSGTELVRPGTSVKVSCKASGYAFTNYLIEWVKQRPGQGLEWIGVINPGSGFTKYNEKFKGKATLTADKSSSTVYMHLSSLTSEDSAVYFCARGLYRAMDYWGQGTSVTVSS
VL: DIQMTQSPASQSASLGESVTITCLASQTIATWLAWYQQKPGKSPQLLIYGATTLADGVPSRFSGGGSGTKFSFKISSLQAEDFVSYYCQQLYSTPYTFGGGTKLEIK
notes: mouse IgG, kappa light chain; also called clone #48; purified antibody 48
B2: antibody 34 (antibody, V domains shown)
VH: QVTLKESGPGILQPSQTLSLTCSFSGFSLSTFSLGVGWIRQSSGKGLEWLAHIWWDDEKYYNPALKSRLTISKDTSKNQVFLKIANVDAADTATYYCARAYYSKSYYALDYWGQGTSVTVSS
VL: DIQMTQSPSSLSASLGERVSLTCRASQEISGYLSWLQQKPDGTIKRLIYAASTLDSGVPKRFSGSRSGSDYSLAISSLESEDFADYYCLQYANFPFTFGSGTKLEIK
notes: mouse IgG, kappa light chain; also called clone #34; purified antibody 34

What was measured:
hiR2-FL-F588A-T7 = biological target: T1, hiR2-FL-F588A-T7 (human, UniProt Q6PJF5 1-856); assay: FACS on MEF-DKO cells expressing the variant, 3 µg/ml antibody
T1 sequence: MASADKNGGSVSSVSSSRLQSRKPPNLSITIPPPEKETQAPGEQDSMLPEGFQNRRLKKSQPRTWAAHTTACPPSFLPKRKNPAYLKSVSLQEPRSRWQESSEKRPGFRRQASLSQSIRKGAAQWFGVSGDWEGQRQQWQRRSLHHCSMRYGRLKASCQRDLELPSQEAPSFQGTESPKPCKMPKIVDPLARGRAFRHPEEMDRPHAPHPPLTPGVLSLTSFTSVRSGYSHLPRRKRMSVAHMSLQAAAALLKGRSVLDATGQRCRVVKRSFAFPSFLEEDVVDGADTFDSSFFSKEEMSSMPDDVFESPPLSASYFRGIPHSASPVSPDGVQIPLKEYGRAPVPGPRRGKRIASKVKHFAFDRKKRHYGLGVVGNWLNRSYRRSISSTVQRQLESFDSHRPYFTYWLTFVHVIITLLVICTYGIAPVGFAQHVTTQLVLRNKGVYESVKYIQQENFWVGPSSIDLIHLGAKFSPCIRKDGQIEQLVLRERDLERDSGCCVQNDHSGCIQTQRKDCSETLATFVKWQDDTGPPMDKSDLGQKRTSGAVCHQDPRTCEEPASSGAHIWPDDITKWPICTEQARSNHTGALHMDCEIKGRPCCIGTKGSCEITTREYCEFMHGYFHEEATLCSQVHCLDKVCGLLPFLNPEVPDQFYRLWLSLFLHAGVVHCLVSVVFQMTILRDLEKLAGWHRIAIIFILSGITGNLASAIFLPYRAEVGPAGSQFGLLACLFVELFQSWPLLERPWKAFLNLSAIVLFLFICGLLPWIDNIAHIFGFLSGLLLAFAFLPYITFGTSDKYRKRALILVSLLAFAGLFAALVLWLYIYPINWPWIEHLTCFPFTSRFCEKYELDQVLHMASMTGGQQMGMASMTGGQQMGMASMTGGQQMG
How it was run: (§1)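 Primary stain: antibody 3 μg/ml, 1 h on ice; controls buffer alone. Secondary: PE anti-mouse IgG F(ab′)2 1:100, 1 h on ice, light-protected. Washes at 4° C; read by flow cytometry.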

hiR2-FL-P533A-T7 = biological target: T2, hiR2-FL-P533A-T7 (human, UniProt Q6PJF5 1-856); assay: as above
T2 sequence: T1 sequence with P533A, A588F
How it was run: as §1

Binder | loss of binding vs wild type (hiR2-FL-F588A-T7) [%] | loss of binding vs wild type (hiR2-FL-P533A-T7) [%]
B1 | ≥ 30 | –
B2 | – | ≥ 30
